Source: the supplement of paper PMC9170038

Test system: MS2 coat protein
Test: apparent KD of MS2 coat protein; designed switch direction (-1 OFF switch, 1 ON switch): 1; higher = weaker reporter binding
Outline: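 An oligonucleotide input, 200 uM small-molecule ligand, or no input was present during titration of SNAP-549-labelled MS2 coat protein, which was doubled from 0.7 or 1.5 nM to 3 µM. Designed RNA switches had been transcribed on Illumina chips by stalled E. coli RNA polymerase. Apparent KD per design is the median over clusters of curves fitted to normalised cluster fluorescence.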

[1] = input ligand: microRNA oligo, concentration not stated
[2] = Eterna round: R95, input ligand: FMN 200 uM
[3] = Eterna round: R95, input ligand: microRNA oligo, concentration not stated
[4] = Eterna round: R95, input ligand: none

Sequence	apparent KD of MS2 coat protein (input ligand: FMN 200 uM)	apparent KD of MS2 coat protein [1]	apparent KD of MS2 coat protein (input ligand: none)	apparent KD of MS2 coat protein [2]	apparent KD of MS2 coat protein [3]	apparent KD of MS2 coat protein [4]
GCCGGCUGGUGAGGAUAUGGCACCUUAUUGGUGCCAGAAGGCAUGUCAAUUGACAUGAGGAUCACCCAUGUAUUGUCGUUGGCG [salish99_SSNG1_r04_608] (Eterna round: R96, puzzle: Same State NG 1)	819 nM	194 nM	399 nM			
UCUUGGUUUUUGCUCGUUUUUUGUGUUGAACAUGAGGAUCACCCAUGUAUUGUACGGUCCAAUUUAAUAAUAAUCCA [JMF 74] (puzzle: Sensor for hsa-mir-208a)				59 nM	57.1 nM	82.1 nM
GGUCCAGCCUGAGCUGGACAAAAGCAUGUACAUGAGGAUCACCCAUGUCAUGUACAAGCUUUUUGCUCGUCUUAAAA [Mat - Sensor - JL mod - D87] (Eterna round: R96, puzzle: Sensor for hsa-mir-208a)	586 nM	14.2 nM	573 nM			
GUAGAAUAACUAGAGGAUAUCCGAGUGGUAACAUGAGGAUCACCCAUGUGAUGAAAGGAACAUGAGGAGAAGGCUAGAAUGAAUG [Mat - Same State 2 - Mod of JL - D84] (puzzle: Same State 2)				23.4 nM	38.4 nM	88.3 nM
ACAUGAGACAAAGGAUAUGGUGUACCUACAUGUGACAUGAGGAUCACCCAUGUGGUAAGUAUGACUCAGAAGGUUGAGAUAUGU [Equivalance 74 - Jieux - Same State NG 2] (Eterna round: R96, puzzle: Same State NG 2)	37 nM	203 nM	299 nM			
AAGAAACAUGAGGAUCACCCAUGUGAGAAUAUGGGAGGAUAUACAAGGACGUAAGUCAAGGUAGAAGGCCUAAGAA [Mat - Same State 1 - Meechl mod - D139] (Eterna round: R96, puzzle: Same State 1)		143 nM				
GGACGUCAUCUCACUGAUUAAACAUGAGGAUCACCCAUGUCACAGGAUAUGGAUCCGAUUAGGAUCCAGAAGGGUGUGACGUCC [Fiskers NG3ss - 43] (Eterna round: R96, puzzle: Same State NG 3)	21.4 nM	19.3 nM	24.2 nM			
ACGCUCCAUGGAGGAUAUGGGCCUGCCCGGGAUACCGGGCCUAACACAUGAGGAUCACCCAUGUCCCAGAAGGCCGCUGGAGCC [Atgeenbite] (Eterna round: R96, puzzle: Same State NG 2)	19.2 nM	62.3 nM	98.7 nM			
GAGUAGUUGAAAGGAUAUGGAUUGUUAUAGAAUCCAGAAGGUUCUAACAUGAGGAUCACCCAUGUAGGACUAUUCCUGUGUAUC [Parity 79 - Jieux - Same State NG 1] (Eterna round: R96, puzzle: Same State NG 1)	10.2 nM	9.3 nM	12.2 nM			
AAACCACAUGAGGAUCACCCAUGUAAAAAUAUGGGAGGAUAUCGGAAUAAAAUAAAGAAACGAGAAGGCCUAAAAA [59%, Flamingo, 5] (Eterna round: R96, puzzle: Same State 1)	26.6 nM	212 nM	256 nM			
UAGCUUGUGGUAGGAUAUCUAGGAUAUGGGAAGAGCUAAGCUUGGAAGUCACUUCACCCAGAAGGAGAGAAGGACCAGAGGCUU [pwkr ssNG2 2FMN + F9.6] (Eterna round: R96, puzzle: Same State NG 2)	218 nM	73.6 nM	262 nM			
UUAUAACAUGAGGAUCACCCAUGUCAACAAAGUCGAGGAUAUGGGCAAUUAUUAUAAGAACCAGAAGGCGAAUAUU [Mat - Same State 1 - Mod of UCT - D32] (puzzle: Same State 1)				35.5 nM	342 nM	230 nM
UUAAUGAUGAUAGGAUAUACAUGAGGAAUCCUCGUAGAAGGAUCAUGACAUGAGGAUCACCCAUGUAACGCUCCGUAGAGCGUA [JL SSNG1 1.16] (Eterna round: R96, puzzle: Same State NG 1)	220 nM	94 nM	250 nM			
ACAUAGGGAACAGGAUAUGGGAAAAUUCCCUACAUGAGGAUCACCCAUGUCCGUAGGGACAACAUCCAGAAGGGUUACCACAUA [Eternabot solution 1] (Eterna round: R96, puzzle: Same State NG 2)	211 nM	549 nM	656 nM			
GGCAGGUGCAGGCUUGCUUGCACCUGGAAACAUGAGGAUCACCCAUGUUUGGGACAAGCUUUGCUCCUCGUCUUAUC [JL ViennaUCT Isusreraar mod 1] (puzzle: Sensor for hsa-mir-208a)				179 nM	43.1 nM	232 nM
AGCUAGUACCGAGGAUAUACAUACAUGAGGAUCACCCAUGUAUACAUGAAUAAAUGAGACUACAUGUAGAAGGCGGUACUAGCA [Mat - Same State NG 2 - JL mod - D47] (Eterna round: R96, puzzle: Same State NG 2)		48.8 nM				
UCUUGGUUUUUGCUCGUUUUUUGUGUUGAACAUGAGGAUCACCCAUGUAUUGUACGGUCCAGUUUAGUAAUGGUCCA [JMF 7] (puzzle: Sensor for hsa-mir-208a)				26.3 nM	16.3 nM	27.8 nM
AUUCGUUUGAUAGGAUAUCGCUAUACAUGAGGAUCACCCAUGUUUACCACGCUGGUUUUUCGUACCGAGAAGGAUUCUGAUGAU [JL JR sub007 mod 3] (Eterna round: R96, puzzle: Same State NG 2)	35.4 nM	27.3 nM	41.4 nM			
GAGUGGCAGUUAGGAUAUAUAGUGAUAAUUACAAUAGAAGGAACAGACAUGAGGAUCACCCAUGUAGGACUAAUCCAGAGAGAG [Parity 38 - Jieux - Same State NG 1] (Eterna round: R96, puzzle: Same State NG 1)	30.9 nM	20.6 nM	30.9 nM			
GUGGUCAGACAUGAGGAUCACCCAUGUGGAAUAAAUAACGGUGAGGAUAUGGAAUAUAGGAUAUACUAGAAGGCAUGAUUGGUG (Eterna round: R96, puzzle: Same State NG 3)	91.5 nM	76.9 nM	92.3 nM			
AAGUGGUCCCAAGGAUAUGUCCAAAAGAAGGGCUGAGACAUGAGGAUCACCCAUGUCUCGGCGGUACAGAAGGUGGAGACAGGU [Solaena] (Eterna round: R96, puzzle: Same State NG 2)	10.5 nM	10 nM	14 nM			
CUGAAAUGUCAAGGAUAUCACGUCGAUUAGACGUGAGAAGGUGAUCUACACAUGAGGAUCACCCAUGUGUUACAUGGGAGUCAG [Brourd's SSNG1/1-A2 mod 17] (Eterna round: R96, puzzle: Same State NG 1)	325 nM	448 nM	601 nM			
AGUAGUUUAACAUGAGGAUCACCCAUGUAUCUAUCUGUAACCUAGGAUAUGGACGUUUUAUUUAACCAGAAGGAGGAUCGUUUA [JR_SSNG3_Sub045] (Eterna round: R96, puzzle: Same State NG 3)	17.1 nM	16.9 nM	25.3 nM			
GCGAAGAGGUAAGGAUAUUCAUGGCGUAGACAUGAGGAUCACCCAUGUAGGAGACGAAUUAAAAGGGAGAAGGUACCAGGACGC [AK SSNG2-V2-16] (Eterna round: R96, puzzle: Same State NG 2)	50.1 nM	298 nM	286 nM			
GCCGGCUGGUGAGGAUAUGGCACCUUAUUGGUGCCAGAAGGCAUGUCAAUUGACAUGAGGAUCACCCAUGUAUUAUGGUUGGCG [salish99_SSNG1_r04_606] (Eterna round: R96, puzzle: Same State NG 1)	567 nM	63.2 nM	85.4 nM			
GUAGAUGUAGAGGAGGAUAUUCAAUAGAGAACAUGAGGAUCACCCAUGUAAGAGAGAGAUGAUGGGAAGAAGGCUUAGAGAGAUG [Altered State 2-1 - Jieux - Same State 2] (puzzle: Same State 2)				72.2 nM	76.6 nM	94.8 nM
GAGCGCUGUCGAGAGGAUAUGCGGUGAUGGACAUGAGGAUCACCCAUGUUAGCGAUAGCAUUACGGUAGAAGGCUCUACAGCUGC [Mat - Same State 2 - Mod of UCT - D87] (puzzle: Same State 2)					22.3 nM	
AUUAUACAUGAGGAUCACCCAUGUCAAUGUAGUCGAGGAUAUGGGUUGCUAUGAGGCGUACUAGAAGGCGAGGAGA [Mat - Same State 1 - Mod of JL - D17] (puzzle: Same State 1)				61.5 nM	99.9 nM	82.8 nM
AUUAUUUAUGCAGGAUAUGAUUAACAUGAGGAUCACCCAUGUGGUGUUGUGAGUAAGGAGAGUGAUCAGAAGGGCAUUUCUUUU [JMF's solution 49] (Eterna round: R96, puzzle: Same State NG 2)	596 nM	315 nM	492 nM			
AGAGCCGGCACUGAGGAUAUUCAUAUUAAAACAUGAGGAUCACCCAUGUAGGCCAGAAGGCCUUGGGAGAAGGCAGGUCGGCUCU [Mat - Same State 2 - Mod of UCT - D61] (puzzle: Same State 2)				22.3 nM	211 nM	507 nM
